Data: US20110008376

Key:
[1] = biological target: nH5 (non-treated H5 of H5N1 strain A/Vietnam/1203/04, first example)
[2] = biological target: cH5-3 (misfolded H5 of A/VN/1203/04, heat cycling at pH 12)
[3] = biological target: T1, dOVA-3 (misfolded ovalbumin comprising crossbeta, about 16 h at 75 C), P01012
T1 chain: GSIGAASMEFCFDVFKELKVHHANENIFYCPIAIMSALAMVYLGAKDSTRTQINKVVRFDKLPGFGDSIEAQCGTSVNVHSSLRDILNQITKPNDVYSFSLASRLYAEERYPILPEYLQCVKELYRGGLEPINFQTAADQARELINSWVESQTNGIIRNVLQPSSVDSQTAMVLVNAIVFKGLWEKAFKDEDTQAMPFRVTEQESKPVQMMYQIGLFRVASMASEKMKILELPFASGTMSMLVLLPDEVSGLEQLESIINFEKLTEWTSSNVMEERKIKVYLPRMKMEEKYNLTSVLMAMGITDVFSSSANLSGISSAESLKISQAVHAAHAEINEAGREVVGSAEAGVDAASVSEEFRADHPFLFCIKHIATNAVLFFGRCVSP

[4] = biological target: T2, dOVA-2 (misfolded ovalbumin comprising crossbeta, cyclic heating 30-85 C), P01012
T2 chain: T1 chain

[5] = biological target: T3, dOVA-1 (misfolded ovalbumin comprising crossbeta, acid treated), P01012
T3 chain: T1 chain

[6] = biological target: T4, nOVA (untreated ovalbumin, 1 mg/ml in PBS), P01012
T4 chain: T1 chain

[7] = biological target: cH5-4 (glycated H5 of A/VN/1203/04)
[8] = biological target: cH5-2 (misfolded H5 of A/VN/1203/04, heat cycling at pH 2)
[9] = biological target: cH5-1 (misfolded H5 of A/VN/1203/04, heat cycling)

B1: tissue type plasminogen activator (tPA) (protein)
chain: SYQVICRDEKTQMIYQQHQSWLRPVLRSNRVEYCWCNSGRAQCHSVPVKSCSEPRCFNGGTCQQALYFSDFVCQCPEGFAGKCCEIDTRATCYEDQGISYRGTWSTAESGAECTNWNSSALAQKPYSGRRPDAIRLGLGNHNYCRNPDRDSKPWCYVFKAGKYSSEFCSTPACSEGNSDCYFGNGSAYRGTHSLTESGASCLPWNSMILIGKVYTAQNPSAQALGLGKHNYCRNPDGDAKPWCHVLKNRRLTWEYCDVPSCSTCGLRQYSQPQFRIKGGLFADIASHPWQAAIFAKHRRSPGERFLCGGILISSCWILSAAHCFQERFPPHHLTVILGRTYRVVPGEEEQKFEVEKYIVHKEFDDDTYDNDIALLQLKSDSSRCAQESSVVRTVCLPPADLQLPDWTECELSGYGKHEALSPFYSERLKEAHVRLYPSSRCTSQHLLNRTVTDNMLCAGDTRSGGPQANLHDACQGDSGGPLVCLNDGRMTLVGIISWGLGCGQKDVPGVYTKVTNYLDWIRDNMRP
tPA mediated plasminogen activation assay [1]: nH5 (140% of standard) | tPA mediated plasminogen activation assay [2]: cH5-3 (200% of standard) | tPA activation potency, Activation at 10 µg/mL [3]: 60.9% | tPA activation potency, Activation at 25 µg/mL [3]: 79% | tPA activation potency, Activation at 10 µg/mL [4]: 107% | tPA activation potency, Activation at 25 µg/mL [4]: 107% | tPA-mediated plasminogen activation (plasmin chromogenic substrate), reference dOVA-2 at 80 µg/mL [4]: 100% | tPA/Plg activating potential, crossbeta ovalbumin standard at 10 µg/ml [4]: at 10 and 50 µg/ml, tPA/plg activation is 100% and 85%, respectively | tPA/Plg activating potential, crossbeta ovalbumin standard at 30 µg/ml [4]: The activating potential of crossbeta ovalbumin standard at 30 µg/ml is set to 100% | tPA/Plg activating potential, crossbeta ovalbumin standard at 50 µg/ml [4]: at 10 and 50 µg/ml, tPA/plg activation is 100% and 85%, respectively | tPA activation potency, Activation at 10 µg/mL [5]: 97.4% | tPA activation potency, Activation at 25 µg/mL [5]: 136% | tPA activation potency, Activation at 10 µg/mL [6]: 48.8% | tPA activation potency, Activation at 25 µg/mL [6]: 48.1% | tPA mediated plasminogen activation assay [7]: cH5-4 (37% of standard) | tPA mediated plasminogen activation assay [8]: cH5-2 (150% of standard) | tPA mediated plasminogen activation assay [9]: cH5-1 (50% of standard)
